Numbering of substitutions follows the chain as printed. Names may count otherwise.

Sequences and labels used below:
T1: human CD154 (human, UniProt P29965 113-261, limits assumed, biotin-labeled)
T1 construct: also called biotin-labeled human CD154; biotinylated human CD154
T1 sequence (looked up): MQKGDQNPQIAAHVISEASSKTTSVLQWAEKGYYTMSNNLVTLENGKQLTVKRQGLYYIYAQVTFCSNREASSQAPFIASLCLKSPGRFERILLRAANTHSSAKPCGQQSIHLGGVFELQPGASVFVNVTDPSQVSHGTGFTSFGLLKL

B1: CE115HA000 Q50A one-arm antibody (antibody, human IgG1, kappa, L234A L235A, N297A, name in Kabat numbering)
heavy: QVQLVESGGGVVQPGRSLRLSCAASGFTFSNAWMHWVRQAPGKGLEWVAAIKAKSNNYATYYAESVKGRFTISRDDSKNSLYLQMNSLKTEDTAVYYCRYVHYGAYYGVDAWGQGTTVTVSSASTKGPSVFPLAPSSKSTSGGTAALGCLVKDYFPEPVTVSWNSGALTSGVHTFPAVLQSSGLYSLSSVVTVPSSSLGTQTYICNVNHKPSNTKVDKKVEPKSCDKTHTCPPCPAPEAAGGPSVFLFPPKPKDTLMISRTPEVTCVVVDVSHEDPEVKFNWYVDGVEVHNAKTKPREEQYASTYRVVSVLTVLHQDWLNGKEYKCKVSNKALPAPIEKTISKAKGQPREPQVYTLPPSRCELTKNQVSLSCAVKGFYPSDIAVEWESNGQPENNYKTTPPVLDSDGSFFLVSKLTVDKSRWQQGNVFSCSVMHEALHNHYTQKSLSLSPDYKDDDDK
chain: EPKSSDKTHTCPPCPAPELLGGPSVFLFPPKPKDTLMISRTPEVTCVVVDVSHEDPEVKFNWYVDGVEVHNAKTKPREEQYNSTYRVVSVLTVLHQDWLNGKEYKCKVSNKALPAPIEKTISKAKGQPREPQVCTLPPSRDELTKNQVSLWCLVKGFYPSDIAVEWESNGQPENNYKTTPPVLDSDGSFFLYSKLTVDKSRWQQGNVFSCSVMHEALHNRYTQKSLSLSP
light: DIVMTQSPLSLPVTPGEPASISCRSSQSLVHSNRNTYLHWYQQKPGQAPRLLIYKVSNRFSGVPDRFSGSGSGTDFTLKISRVEAEDVGVYYCGQGTQVPYTFGQGTKLEIKRTVAAPSVFIFPPSDEQLKSGTASVVCLLNNFYPREAKVQWKVDNALQSGNSQESVTEQDSKDSTYSLSSTLTLSKADYEKHKVYACEVTHQGLSSPVTKSFNRGEC
B2: CE115HA000 S52cK one-arm antibody (antibody, human IgG1, kappa, L234A L235A, N297A, name in Kabat numbering)
heavy: B1 heavy with A50Q, S55K
chain: B1 chain
light: B1 light
B3: CE115HA000 G98K one-arm antibody (antibody, human IgG1, kappa, L234A L235A, N297A, name in Kabat numbering)
heavy: B1 heavy with A50Q, G104K
chain: B1 chain
light: B1 light
B4: CE115HA000 D101R one-arm antibody (antibody, human IgG1, kappa, L234A L235A, N297A, name in Kabat numbering)
heavy: B1 heavy with A50Q, D110R
chain: B1 chain
light: B1 light
B5: CE115HA000 D101K one-arm antibody (antibody, human IgG1, kappa, L234A L235A, N297A, name in Kabat numbering)
heavy: B1 heavy with A50Q, D110K
chain: B1 chain
light: B1 light
B6: CE115HA000 A52aE one-arm antibody (antibody, human IgG1, kappa, L234A L235A, N297A, name in Kabat numbering)
heavy: B1 heavy with A50Q, A53E
chain: B1 chain
light: B1 light
B7: CE115HA000 W33L one-arm antibody (antibody, human IgG1, kappa, L234A L235A, N297A, name in Kabat numbering)
heavy: B1 heavy with W33L, A50Q
chain: B1 chain
light: B1 light
B8: CE115HA000 K52E one-arm antibody (antibody, human IgG1, kappa, L234A L235A, N297A, name in Kabat numbering)
heavy: B1 heavy with A50Q, K52E
chain: B1 chain
light: B1 light
B9: 154R3A01#4 one-arm antibody (antibody, human IgG1, kappa, L234A L235A, N297A)
heavy: QVQLVESGGGLVQPGRSLRLSCAASGFTFSNAWMHWVRQAPGKGLEWVAQIKDRVNQYANYYAECVKGRFTISRDDSKNSIYLQMNSLKTEDTAVYYCRYVHYGLTGYFSGQGGVDAWGQGTTVTVSSASTKGPSVFPLAPSSKSTSGGTAALGCLVKDYFPEPVTVSWNSGALTSGVHTFPAVLQSSGLYSLSSVVTVPSSSLGTQTYICNVNHKPSNTKVDKKVEPKSCDKTHTCPPCPAPEAAGGPSVFLFPPKPKDTLMISRTPEVTCVVVDVSHEDPEVKFNWYVDGVEVHNAKTKPREEQYASTYRVVSVLTVLHQDWLNGKEYKCKVSNKALPAPIEKTISKAKGQPREPQVYTLPPSRCELTKNQVSLSCAVKGFYPSDIAVEWESNGQPENNYKTTPPVLDSDGSFFLVSKLTVDKSRWQQGNVFSCSVMHEALHNHYTQKSLSLSPDYKDDDDK
chain: B1 chain
light: B1 light
notes: As m48
B10: 154R3A01#2 one-arm antibody (antibody, human IgG1, kappa, L234A L235A, N297A)
heavy: B9 heavy with C65S, F70L
chain: B1 chain
light: B1 light
notes: As m48
B11: 154R4B03#1 one-arm antibody (antibody, human IgG1, kappa, L234A L235A, N297A)
heavy: QVQLVESGGGLVQPGRSLRLSCAASGFTFSNAWMHWVRQAPGKGLEWVAQIKDKQSQYANYYAPSVKGRFTISRDDSKNSIYLQMNSLKTEDTAVYYCRYVHYQSTSYSFYQGGVDAWGQGTTVTVSSASTKGPSVFPLAPSSKSTSGGTAALGCLVKDYFPEPVTVSWNSGALTSGVHTFPAVLQSSGLYSLSSVVTVPSSSLGTQTYICNVNHKPSNTKVDKKVEPKSCDKTHTCPPCPAPEAAGGPSVFLFPPKPKDTLMISRTPEVTCVVVDVSHEDPEVKFNWYVDGVEVHNAKTKPREEQYASTYRVVSVLTVLHQDWLNGKEYKCKVSNKALPAPIEKTISKAKGQPREPQVYTLPPSRCELTKNQVSLSCAVKGFYPSDIAVEWESNGQPENNYKTTPPVLDSDGSFFLVSKLTVDKSRWQQGNVFSCSVMHEALHNHYTQKSLSLSPDYKDDDDK
chain: B1 chain
light: B1 light
notes: As m48
B12: 154R3A01#3 one-arm antibody (antibody, human IgG1, kappa, L234A L235A, N297A)
heavy: B9 heavy with T28A, C65S
chain: B1 chain
light: B1 light
notes: As m48
B13: 154R3F02#2 one-arm antibody (antibody, human IgG1, kappa, L234A L235A, N297A)
heavy: QVQLVESGGGLVQPGRSLRLSCAASGFTFSNAWMHWVRQAPGKGLEWVAQIKDRASGYNNYYAESVKGRFTISRDDSKNSIYLQMNSLKTEDTAVYYCRYVHYAQSVSAFFQYGVDAWGQGTTVTVSSASTKGPSVFPLAPSSKSTSGGTAALGCLVKDYFPEPVTVSWNSGALTSGVHTFPAVLQSSGLYSLSSVVTVPSSSLGTQTYICNVNHKPSNTKVDKKVEPKSCDKTHTCPPCPAPEAAGGPSVFLFPPKPKDTLMISRTPEVTCVVVDVSHEDPEVKFNWYVDGVEVHNAKTKPREEQYASTYRVVSVLTVLHQDWLNGKEYKCKVSNKALPAPIEKTISKAKGQPREPQVYTLPPSRCELTKNQVSLSCAVKGFYPSDIAVEWESNGQPENNYKTTPPVLDSDGSFFLVSKLTVDKSRWQQGNVFSCSVMHEALHNHYTQKSLSLSPDYKDDDDK
chain: B1 chain
light: B1 light
notes: As m48
B14: 154R4B03#4 one-arm antibody (antibody, human IgG1, kappa, L234A L235A, N297A)
heavy: B11 heavy with N79S
chain: B1 chain
light: B1 light
notes: As m48
B15: 154R3B01#1 one-arm antibody (antibody, human IgG1, kappa, L234A L235A, N297A)
heavy: QVQLVESGGGLVQPGRSLRLSCAASGFTFSSAWMHWVRQAPGKGLEWVAQIKDKQNQYNAYYAESVKGRFTISRDDSKNSIYLQMNSLKTEDTAVYYCRYVHYATSDGFLPYFGVDAWGQGTTVTVSSASTKGPSVFPLAPSSKSTSGGTAALGCLVKDYFPEPVTVSWNSGALTSGVHTFPAVLQSSGLYSLSSVVTVPSSSLGTQTYICNVNHKPSNTKVDKKVEPKSCDKTHTCPPCPAPEAAGGPSVFLFPPKPKDTLMISRTPEVTCVVVDVSHEDPEVKFNWYVDGVEVHNAKTKPREEQYASTYRVVSVLTVLHQDWLNGKEYKCKVSNKALPAPIEKTISKAKGQPREPQVYTLPPSRCELTKNQVSLSCAVKGFYPSDIAVEWESNGQPENNYKTTPPVLDSDGSFFLVSKLTVDKSRWQQGNVFSCSVMHEALHNHYTQKSLSLSPDYKDDDDK
chain: B1 chain
light: B1 light
notes: As m48
B16: 154R5A02#1 one-arm antibody (antibody, human IgG1, kappa, L234A L235A, N297A)
heavy: QVQLVESGGGLVQPGRSLRLSCAASGFTFSNAWMHWVRQAPGKGLEWVAQIKDRGNNYNTYYAPSVKGRFTISRDDSKNSIYLQMNSLKTEDTAVYYCRYVHYGSYFFSGSSFGVDIWGQGTTVTVSSASTKGPSVFPLAPSSKSTSGGTAALGCLVKDYFPEPVTVSWNSGALTSGVHTFPAVLQSSGLYSLSSVVTVPSSSLGTQTYICNVNHKPSNTKVDKKVEPKSCDKTHTCPPCPAPEAAGGPSVFLFPPKPKDTLMISRTPEVTCVVVDVSHEDPEVKFNWYVDGVEVHNAKTKPREEQYASTYRVVSVLTVLHQDWLNGKEYKCKVSNKALPAPIEKTISKAKGQPREPQVYTLPPSRCELTKNQVSLSCAVKGFYPSDIAVEWESNGQPENNYKTTPPVLDSDGSFFLVSKLTVDKSRWQQGNVFSCSVMHEALHNHYTQKSLSLSPDYKDDDDK
chain: B1 chain
light: B1 light
notes: As m48
B17: 154R5A02#2 one-arm antibody (antibody, human IgG1, kappa, L234A L235A, N297A)
heavy: B16 heavy with V101A
chain: B1 chain
light: B1 light
notes: As m48
B18: 154R5E11#3 one-arm antibody (antibody, human IgG1, kappa, L234A L235A, N297A)
heavy: B16 heavy with N59A, T60A, P64E, S109A, G110S, S111F, S112Y, T123A
chain: B1 chain
light: B1 light
notes: As m48

The target in one assay is CD3ε homodimer protein (human, UniProt P07766 23-126, limits assumed). In words: SPR Biacore T200, CD3e homodimer on chip. For orientation: SPR reads the build-up and loss of mass on a sensor chip optically.
Sequence of CD3ε homodimer protein (P07766 23-126 limits assumed): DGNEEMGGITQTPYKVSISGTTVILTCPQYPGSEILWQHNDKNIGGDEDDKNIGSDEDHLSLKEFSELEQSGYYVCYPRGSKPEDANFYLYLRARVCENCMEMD
Protocol: An appropriate amount of CD3ε homodimer protein was immobilized onto Sensor chip CM4 (GE Healthcare Japan Corp.) by the amine coupling method. Then, the antibody having an appropriate concentration was injected thereto as an analyte and allowed to interact with the CD3ε homodimer protein on the sensor chip. Then, the sensor chip was regenerated by the injection of 10 mmol/L glycine-HCl (pH 1.5). The assay was conducted at 25° C., and HBS-EP+ (GE Healthcare Japan Corp.) was used as a running buffer. […] Each parameter was calculated using Biacore T200 Evaluation Software (GE Healthcare Japan Corp.).
With B1, the “KD ratio (KD of CE115HA000/KD of altered form)” value (shortened to “KD ratio”) turned out to be 22.8.
The same measure, in the same setting: to B2 belongs 0.88.
Consider B3, for which the “KD ratio” value worked out at 1.85.
Still for that read-out and setting: as for B4, the figure is 5.55; as for B5, 4.32; as for B6, 0.88.
For B7, the “KD ratio” value amounted to 56600.
Still for that read-out and setting: as for B8, the figure is 18.4.

Another assay addresses T1, human CD154. As to the kind of experiment: ECL competition, CD3ε[+]: CD3ε homodimer added as competitor [1].
Protocol: (§1) Next, each obtained IgG was evaluated for its binding to CD3 and human CD154 at the same time by the competition method (electrochemiluminescence method (ECL method)).
(§2) A TBST solution containing 0.5% BSA (referred to as a blocking solution; the TBST solution was TBS (manufactured by Takara Bio Inc.) supplemented with 0.1% Tween 20) was added at 150 μL/well to streptavidin plate (MSD K.K.), and the plate was incubated at room temperature for 1 hour or longer. After removal of the blocking solution, each well was washed three times with 250 μL of a TBST solution. The antibody-antigen complex solution was added thereto at 50 μL/well, and the plate was incubated at room temperature for 1 hour so that the biotinylated antigen-antibody-detection sulfo-tag antibody complex solution bound via the biotinylated antigen to the streptavidin plate. After removal of the antibody-antigen complex solution, each well was washed three times with a TBST solution, and a solution of 4×READ buffer (MSD K.K.) diluted 2-fold with water was added thereto at 150 μL/well, followed by the detection of the luminescence signal of the sulfo-tag using Sector Imager 2400 (MSD K.K.).
As for B9, the “relative ECL reaction (to no antigen coating)” value amounted to 4.
On the same count and under the same terms, to B10 belongs 4; to B11, 18.
On the same count and under the same terms, to B12 belongs 19.
Same read-out and setting: as for B13, the figure is 16; as for B14, 20.
For B15, the “relative ECL reaction (to no antigen coating)” value turned out to be 18.

The next assay deals with T1, human CD154. In words: ECL competition, CD3ε[+]: CD3ε homodimer added as competitor [2].
Protocol: as §1, §2
Consider B16, for which the “relative ECL reaction (to no antigen coating)” value stood at 10.
On the same count and under the same terms, to B17 belongs 106.
As for B18, the “relative ECL reaction (to no antigen coating)” value turned out to be 1.

The record behind these values is patent US20260049138A1 (Chugai, published 2026).
